Assay results from patent US20230279064A1.

Biological target: human collagen (Sigma cat. no. C5483) (human)
Experiment: ELISA on immobilised human collagen (FIG. 9)

Chain of human collagen (Sigma cat. no. C5483) (human) (P02452 162-1218, chain 1 of 2): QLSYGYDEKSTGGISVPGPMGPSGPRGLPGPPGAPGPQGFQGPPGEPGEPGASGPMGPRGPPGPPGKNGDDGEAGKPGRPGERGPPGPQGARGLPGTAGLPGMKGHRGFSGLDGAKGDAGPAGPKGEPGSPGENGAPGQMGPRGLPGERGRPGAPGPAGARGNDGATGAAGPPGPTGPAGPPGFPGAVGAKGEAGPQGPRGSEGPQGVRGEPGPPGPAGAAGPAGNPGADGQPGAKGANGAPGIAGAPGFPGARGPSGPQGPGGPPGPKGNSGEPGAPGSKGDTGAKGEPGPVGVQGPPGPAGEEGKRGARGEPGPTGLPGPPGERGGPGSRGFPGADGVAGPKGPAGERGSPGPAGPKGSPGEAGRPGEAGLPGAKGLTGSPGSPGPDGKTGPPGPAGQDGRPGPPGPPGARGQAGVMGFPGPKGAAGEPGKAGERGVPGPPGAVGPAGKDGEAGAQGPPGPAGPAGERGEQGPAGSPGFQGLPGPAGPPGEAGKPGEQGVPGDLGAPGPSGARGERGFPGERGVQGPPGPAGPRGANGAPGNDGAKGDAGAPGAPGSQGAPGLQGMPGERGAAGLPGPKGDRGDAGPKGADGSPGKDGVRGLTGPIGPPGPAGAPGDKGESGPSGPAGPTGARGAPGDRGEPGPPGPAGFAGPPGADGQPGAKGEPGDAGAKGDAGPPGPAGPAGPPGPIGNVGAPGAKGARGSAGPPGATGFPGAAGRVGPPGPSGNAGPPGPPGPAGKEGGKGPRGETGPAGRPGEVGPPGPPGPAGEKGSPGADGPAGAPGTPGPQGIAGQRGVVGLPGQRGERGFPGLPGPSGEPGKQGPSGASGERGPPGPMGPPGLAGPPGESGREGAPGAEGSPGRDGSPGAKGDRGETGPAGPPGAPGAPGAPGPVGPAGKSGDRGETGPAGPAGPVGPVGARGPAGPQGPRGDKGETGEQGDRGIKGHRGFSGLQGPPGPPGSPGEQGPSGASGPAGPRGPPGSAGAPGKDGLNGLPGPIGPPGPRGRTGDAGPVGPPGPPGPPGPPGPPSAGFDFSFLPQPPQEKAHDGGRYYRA
Chain of human collagen (Sigma cat. no. C5483) (human) (P08123 80-1119, chain 2 of 2, further chain): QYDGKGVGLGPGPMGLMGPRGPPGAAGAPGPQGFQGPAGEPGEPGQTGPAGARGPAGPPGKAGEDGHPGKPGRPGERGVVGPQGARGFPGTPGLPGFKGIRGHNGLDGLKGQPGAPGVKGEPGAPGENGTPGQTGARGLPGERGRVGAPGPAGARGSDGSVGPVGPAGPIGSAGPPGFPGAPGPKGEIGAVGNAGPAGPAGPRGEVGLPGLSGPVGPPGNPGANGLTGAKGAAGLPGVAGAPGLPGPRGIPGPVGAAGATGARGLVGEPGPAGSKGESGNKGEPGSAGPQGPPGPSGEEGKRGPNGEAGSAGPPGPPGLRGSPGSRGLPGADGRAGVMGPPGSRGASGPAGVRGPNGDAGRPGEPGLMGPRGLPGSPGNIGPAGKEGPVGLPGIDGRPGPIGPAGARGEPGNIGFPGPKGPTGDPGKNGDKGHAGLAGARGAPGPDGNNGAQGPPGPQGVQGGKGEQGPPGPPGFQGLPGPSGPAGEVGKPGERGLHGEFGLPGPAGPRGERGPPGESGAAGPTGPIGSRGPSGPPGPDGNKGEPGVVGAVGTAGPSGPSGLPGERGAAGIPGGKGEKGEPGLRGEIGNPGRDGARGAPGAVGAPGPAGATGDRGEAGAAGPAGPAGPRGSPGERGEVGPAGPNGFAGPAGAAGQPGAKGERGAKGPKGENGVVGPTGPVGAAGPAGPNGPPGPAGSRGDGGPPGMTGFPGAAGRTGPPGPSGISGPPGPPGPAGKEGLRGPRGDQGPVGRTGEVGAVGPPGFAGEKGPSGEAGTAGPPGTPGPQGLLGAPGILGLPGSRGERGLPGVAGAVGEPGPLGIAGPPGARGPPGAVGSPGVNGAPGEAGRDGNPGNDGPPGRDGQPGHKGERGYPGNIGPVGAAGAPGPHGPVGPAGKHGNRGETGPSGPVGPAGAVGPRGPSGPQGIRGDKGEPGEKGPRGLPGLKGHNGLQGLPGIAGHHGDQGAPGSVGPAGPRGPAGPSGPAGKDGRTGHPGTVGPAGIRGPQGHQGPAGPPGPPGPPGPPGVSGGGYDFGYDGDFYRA

## GAIM scaffold variant with the Q128H mutation (Fc fusion)
  fold increase in non-specific binding to collagen: 1.4 fold
